Results reported in US20240293561A1, “BRAIN PERMEABLE MULTIFUNCTIONAL SYSTEM AND USES THEREOF” (NANOCARRY THERAPEUTICS LTD., priority 2021, published 2024).

Assay: Delivery of cisPt&IgG1&Ins-GNPs into mice brain, Au and Pt measured by ICP-OES
Format: in vivo, Male BALB/c mice
Settings: 8 hours after IV injection, after perfusion
Method: Male BALB/c mice were divided into four treatment groups: • Group 1: Anti-IgG1 & insulin-conjugated GNPs (IgG1&Ins-GNPs; n=2) • Group 2: Cisplatin & insulin-conjugated GNPs (CisPt&Ins-GNPs; n=2) • Group 3: Multifuctional GNPs (cisPt&IgG1&Ins-GNPs; n=2) • Group 4: Free cisplatin (n=2)
Mice were injected intravenously with IgG1&Ins-GNPs (200 μl, 25 mg/ml), cisPt&Ins-GNPs (200 μl of 25 mg/ml), cisPt&IgG1&Ins-GNPs (200 μl of 25 mg/ml), or with equivalent amounts of free cisplatin. Eight hours post injection, mice underwent perfusion to remove all the particles residing within the blood vessels. Then, mice brains were extracted and analyzed using ICP-OES to measure the amounts of Au and Pt that penetrated into the brain (FIGS. 6A and 6B, respectively).

cisPt&Ins-GNPs: GNPs conjugated with insulin and cisplatin; control particle
amount of Pt within the brain compared with equivalent dose of free cisplatin: significantly higher
